The record followed here is paper PMC12292926, “PELP1 coordinates the modular assembly and enzymatic activity of the rixosome complex” (Science Advances, 2025).

Assay [1] addresses recombinant human histone octamer (human) (UniProt P0C0S8). Kind of assay: SEC; histone chaperone assay: MBP-PELP1 variant and histone octamer mixed at 1:1 or 2:1 in >1.2 M NaCl, dialysed stepwise to 0.3 M NaCl, 10 mM Hepes pH 7.5, 4°C; S200 10/300 gel filtration in the low-salt buffer; SDS-PAGE of fractions.
In assay [2] the target is T1, exogenous rixosome subcomplex (PELP1, TEX10, WDR18, and SENP3) purified by GFP-TEX10 wild type (human, UniProt Q9NXF1 1-929; Q8IZL8 1-1130; Q9BV38 1-432; Q9H4L4 1-574).
T1 construct: human TEX10, wild type, bait of the subcomplex; human PELP1, exogenous; human WDR18, exogenous; human SENP3, exogenous; copy numbers in this preparation are not measured; also called immobilized TEX10 rixosome subcomplexes; TEX10 subcomplexes; not shown: GFP, N-terminal, kept; copies: + + +
T1 sequence (Q9NXF1 whole entry, chain 1 of 4): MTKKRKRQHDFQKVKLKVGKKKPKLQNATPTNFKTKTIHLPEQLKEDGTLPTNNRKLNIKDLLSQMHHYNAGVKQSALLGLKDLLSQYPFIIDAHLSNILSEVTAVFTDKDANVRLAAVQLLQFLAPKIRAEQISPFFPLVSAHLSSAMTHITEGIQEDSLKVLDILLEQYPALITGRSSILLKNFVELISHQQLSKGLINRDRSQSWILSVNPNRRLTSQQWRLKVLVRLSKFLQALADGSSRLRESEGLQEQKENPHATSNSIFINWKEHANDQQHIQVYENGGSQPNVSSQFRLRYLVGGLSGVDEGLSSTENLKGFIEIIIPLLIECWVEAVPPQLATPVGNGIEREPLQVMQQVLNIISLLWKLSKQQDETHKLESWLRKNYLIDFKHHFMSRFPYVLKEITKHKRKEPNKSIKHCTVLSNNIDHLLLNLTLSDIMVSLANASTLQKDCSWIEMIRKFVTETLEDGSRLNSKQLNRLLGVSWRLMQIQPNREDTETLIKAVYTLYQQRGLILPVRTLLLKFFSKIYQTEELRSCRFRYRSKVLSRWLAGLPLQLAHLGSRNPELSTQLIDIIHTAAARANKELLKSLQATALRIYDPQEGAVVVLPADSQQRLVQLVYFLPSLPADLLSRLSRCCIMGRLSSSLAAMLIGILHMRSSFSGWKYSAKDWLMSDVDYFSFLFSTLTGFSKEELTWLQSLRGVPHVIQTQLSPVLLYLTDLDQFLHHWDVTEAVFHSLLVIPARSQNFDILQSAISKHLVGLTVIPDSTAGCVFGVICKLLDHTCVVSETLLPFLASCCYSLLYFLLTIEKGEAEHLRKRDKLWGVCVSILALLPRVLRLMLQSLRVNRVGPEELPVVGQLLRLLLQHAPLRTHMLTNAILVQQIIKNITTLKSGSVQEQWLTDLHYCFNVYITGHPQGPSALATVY
T1 sequence (Q8IZL8 whole entry, chain 2 of 4): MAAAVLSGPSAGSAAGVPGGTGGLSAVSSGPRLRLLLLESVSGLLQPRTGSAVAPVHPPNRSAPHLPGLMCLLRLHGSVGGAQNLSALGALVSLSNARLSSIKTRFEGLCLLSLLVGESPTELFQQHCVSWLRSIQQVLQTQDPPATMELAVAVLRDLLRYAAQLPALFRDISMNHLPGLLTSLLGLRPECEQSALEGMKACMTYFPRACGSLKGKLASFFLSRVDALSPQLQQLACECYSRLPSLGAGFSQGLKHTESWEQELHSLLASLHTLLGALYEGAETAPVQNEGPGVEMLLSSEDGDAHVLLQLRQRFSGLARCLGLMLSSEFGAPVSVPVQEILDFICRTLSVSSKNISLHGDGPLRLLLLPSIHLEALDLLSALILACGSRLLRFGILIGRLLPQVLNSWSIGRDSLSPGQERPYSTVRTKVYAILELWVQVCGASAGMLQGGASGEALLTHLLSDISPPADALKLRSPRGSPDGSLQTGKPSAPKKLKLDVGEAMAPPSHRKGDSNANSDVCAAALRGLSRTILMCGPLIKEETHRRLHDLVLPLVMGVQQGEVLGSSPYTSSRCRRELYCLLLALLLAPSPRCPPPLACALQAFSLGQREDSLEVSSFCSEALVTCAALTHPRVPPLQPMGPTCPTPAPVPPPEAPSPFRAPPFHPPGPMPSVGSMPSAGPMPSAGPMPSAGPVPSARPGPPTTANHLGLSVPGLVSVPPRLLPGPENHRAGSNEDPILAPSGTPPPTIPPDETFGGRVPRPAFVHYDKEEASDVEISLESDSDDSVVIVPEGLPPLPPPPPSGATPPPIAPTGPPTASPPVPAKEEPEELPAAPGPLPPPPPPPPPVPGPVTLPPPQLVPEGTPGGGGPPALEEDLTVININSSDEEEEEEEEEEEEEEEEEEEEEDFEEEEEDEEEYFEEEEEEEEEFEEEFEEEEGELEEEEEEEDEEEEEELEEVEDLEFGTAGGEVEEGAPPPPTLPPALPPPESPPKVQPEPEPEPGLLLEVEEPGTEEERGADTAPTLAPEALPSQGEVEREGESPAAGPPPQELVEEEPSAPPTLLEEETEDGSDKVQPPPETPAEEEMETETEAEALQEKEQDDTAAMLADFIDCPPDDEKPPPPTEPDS
T1 sequence (Q9BV38 whole entry, chain 3 of 4): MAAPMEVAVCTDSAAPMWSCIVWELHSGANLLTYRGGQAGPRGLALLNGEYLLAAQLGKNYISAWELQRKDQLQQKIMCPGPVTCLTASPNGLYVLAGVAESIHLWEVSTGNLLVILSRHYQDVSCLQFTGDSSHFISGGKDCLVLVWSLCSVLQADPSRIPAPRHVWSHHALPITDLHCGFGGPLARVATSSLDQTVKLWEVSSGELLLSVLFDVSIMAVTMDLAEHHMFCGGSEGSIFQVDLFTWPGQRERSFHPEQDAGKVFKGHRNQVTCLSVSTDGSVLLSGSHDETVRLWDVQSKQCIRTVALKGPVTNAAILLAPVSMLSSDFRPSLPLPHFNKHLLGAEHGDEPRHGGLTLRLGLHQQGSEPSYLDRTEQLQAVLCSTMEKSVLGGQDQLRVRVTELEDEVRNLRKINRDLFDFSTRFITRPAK
T1 sequence (Q9H4L4 whole entry, chain 4 of 4): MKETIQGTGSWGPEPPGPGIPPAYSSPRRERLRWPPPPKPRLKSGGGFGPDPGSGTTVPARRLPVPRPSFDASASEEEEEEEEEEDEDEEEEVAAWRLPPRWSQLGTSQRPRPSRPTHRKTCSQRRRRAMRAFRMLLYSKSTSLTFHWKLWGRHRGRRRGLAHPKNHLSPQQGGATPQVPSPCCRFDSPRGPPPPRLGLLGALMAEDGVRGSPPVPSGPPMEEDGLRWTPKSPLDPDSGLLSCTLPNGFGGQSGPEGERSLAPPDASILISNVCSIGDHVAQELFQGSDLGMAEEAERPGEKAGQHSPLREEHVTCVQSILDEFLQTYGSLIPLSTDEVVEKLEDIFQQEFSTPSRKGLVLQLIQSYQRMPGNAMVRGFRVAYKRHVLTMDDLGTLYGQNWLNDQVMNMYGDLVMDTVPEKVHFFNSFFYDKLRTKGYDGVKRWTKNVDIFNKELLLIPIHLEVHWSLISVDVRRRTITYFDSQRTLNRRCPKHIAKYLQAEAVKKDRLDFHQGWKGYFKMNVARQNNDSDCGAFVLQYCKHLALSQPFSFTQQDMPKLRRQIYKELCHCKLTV
Kind of assay: pull-down; GFP-TEX10 rixosome subcomplexes affinity purified from HEK293FT and kept on anti-GFP Sepharose (ATP and low-salt washes); incubated with recombinant ncPRC1.4 (0.177 mg/ml) in 0.2 ml low-salt buffer (50 mM Hepes pH 7.5, 200 mM NaCl, 5 mM MgCl2, 10% glycerol), 1 hour, 4°C; Western blot. The conditions noted are these: both partners purified. On the technique in general: Immunoblotting shows a protein as a band on a membrane.

Assay [3] addresses T2, MBP-SENP3^(311–574 C532S), fixed-arm MBP fusion of the SENP3 catalytic domain (human, UniProt Q9H4L4 311-574, C532S).
T2 construct: human SENP3 catalytic domain with the three-helix bundle, Glu311-Val574, catalytic-dead C532S; In the PDB model MBP residues are labeled 1 to 370 and SENP3 residues 1311 to 1574; also called MBP(wt)-SENP3; pMALX(wt)-SENP3 (Glu311-Val574/C532S); source: E. coli Rosetta2 (DE3), purified (amylose resin, Superdex200 SEC); not shown: MBP (fixed-arm fusion, pMALX(wt)), N-terminal, kept
Kind of assay: crystal structure; MBP-SENP3 (311-574, C532S) with 1.5x molar excess of sPELP1 peptide; sitting drop, 0.085 to 0.1 M Hepes pH 7.5, 17 to 20% PEG8000, 4°C; 2.93 Å. The settings on record: both partners purified.

Assay [4] has as its target T3, N-terminal 6× His-tagged human SENP3 protease domain (302 to 574aa) (human, UniProt Q9H4L4 302-574).
T3 construct: E. coli codon-optimized gene (Genscript) in pET11a; source: E. coli, purified (His60 Ni resin, S200 gel filtration)
Nature of the assay: SEC; purified components mixed at equimolar amounts (20 to 80 μM), 4°C for at least 30 min; S200 10/300 analytical column; SDS-PAGE of fractions. The conditions noted are these: both partners purified. For orientation: In gel filtration, larger molecules generally elute earlier.

T3 sequence (Q9H4L4 302-574): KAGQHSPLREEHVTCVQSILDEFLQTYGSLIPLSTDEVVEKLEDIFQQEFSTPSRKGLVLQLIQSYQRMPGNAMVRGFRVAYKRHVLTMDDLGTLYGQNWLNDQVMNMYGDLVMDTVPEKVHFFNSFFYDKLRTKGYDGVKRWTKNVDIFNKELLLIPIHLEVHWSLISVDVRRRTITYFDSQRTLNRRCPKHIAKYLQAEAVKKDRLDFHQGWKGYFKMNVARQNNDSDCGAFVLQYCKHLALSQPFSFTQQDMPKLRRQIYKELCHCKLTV
T2 sequence (Q9H4L4 311-574 C532S): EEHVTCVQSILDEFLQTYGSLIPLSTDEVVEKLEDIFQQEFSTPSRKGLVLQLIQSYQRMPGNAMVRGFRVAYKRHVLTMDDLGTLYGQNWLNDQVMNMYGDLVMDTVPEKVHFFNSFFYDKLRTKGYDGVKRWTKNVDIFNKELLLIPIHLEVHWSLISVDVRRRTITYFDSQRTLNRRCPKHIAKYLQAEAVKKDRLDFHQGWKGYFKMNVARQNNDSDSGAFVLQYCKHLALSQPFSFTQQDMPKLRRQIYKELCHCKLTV

As for “MBP-PELP1^887–966 (from UniProt Q8IZL8 887-966) (domain or fragment)”, the stoichiometry N (copies per histone octamer) in assay [1] turned out to be 2.

“MBP-PELP1^800–1130 (from UniProt Q8IZL8 800-1130) (domain or fragment)”: in assay [1], the stoichiometry N (copies per histone octamer) came to 2.

B1: recombinant human noncanonical PRC1.4 complex (RING1B-BMI1-RYBP) (complex)
chain 1: MSQAVQTNGTQPLSKTWELSLYELQRTPQEAITDGLEIVVSPRSLHSELMCPICLDMLKNTMTTKECLHRFCADCIITALRSGNKECPTCRKKLVSKRSLRPDPNFDALISKIYPSRDEYEAHQERVLARINKHNNQQALSHSIEEGLKIQAMNRLQRGKKQQIENGSGAEDNGDSSHCSNASTHSNQEAGPSNKRTKTSDDSGLELDNNNAAMAIDPVMDGASEIELVFRPHPTLMEKDDSAQTRYIKTSGNATVDHLSKYLAVRLALEELRSKGESNQMNLDTASEKQYTIYIATASGQFTVLNGSFSLELVSEKYWKVNKPMELYYAPTKEHK
chain 2: MHRTTRIKITELNPHLMCVLCGGYFIDATTIIECLHSFCKTCIVRYLETSKYCPICDVQVHKTRPLLNIRSDKTLQDIVYKLVPGLFKNEMKRRRDFYAAHPSADAANGSNEDRGEVADEDKRIITDDEIISLSIEFFDQNRLDRKVNKDKEKSKEEVNDKRYLRCPAAMTVMHLRKFLRSKMDIPNTFQIDVMYEEEPLKDYYTLMDIAYIYTWRRNGPLPLKYRVRPTCKRMKISHQRDGLTNAGELESDSGSDKANSPAGGIPSTSSCLPSPSTPVQSPHPQFPHISSTMNGTSNSPSGNHQSSFANRPRKSSVNGSSATSSG
chain 3: MTMGDKKSPTRPKRQAKPAADEGFWDCSVCTFRNSAEAFKCSICDVRKGTSTRKPRINSQLVAQQVAQQYATPPPPKKEKKEKVEKQDKEKPEKDKEISPSVTKKNTNKKTKPKSDILKDPPSEANSIQSANATTKTSETNHTSRPRLKNVDRSTAQQLAVTVGNVTVIITDFKEKTRSSSTSSSTVTSSAGSEQQNQSSSGSESTDKGSSRSSTPKGDMSAVNDESF
notes: human RING1B, full length; human BMI1, full length; human RYBP, full length; also called ncPRC1.4; not shown: SUMO-10xHis, N-terminal, cleaved; copies: + +
Regarding B1, the binding result in assay [2] was “binds”.

B2: sPELP1 peptide (PELP1 residues Ala764-Glu781) (peptide, UniProt Q8IZL8 764-781, looked up)
peptide: AFVHYDKEEASDVEISLE
notes: also called short (s) PELP1; PELP1^SLiM peptide (764 to 781aa); source: synthetic peptide (GenScript)
As to B2, the binding result in assay [3] is on record as “binds”.

B3: 6×-HIS-MBP-PELP1 761 to 796aa (SENP3 binding motif peptide) (domain or fragment, human, UniProt Q8IZL8 761-796, looked up)
chain: PRPAFVHYDKEEASDVEISLESDSDDSVVIVPEGLP
notes: human PELP1 IDR, residues 761 to 796 with the SLiM; legends and the purification paragraph print 761 to 796aa; also called MBP-PELP1^SLiM; PELP1^SLiM-containing peptide 761 to 796aa; source: E. coli, purified (His60 Ni resin, S200 gel filtration); not shown: MBP, N-terminal, kept
With B3, the binding result in assay [4] is “binds”.
